Assay results from IntAct's records for PubMed 22078559.

B1: Double-strand break repair protein MRE11 (Homo sapiens), P49959 (parent)
chain: MSTADALDDENTFKILVATDIHLGFMEKDAVRGNDTFVTLDEILRLAQENEVDFILLGGDLFHENKPSRKTLHTCLELLRKYCMGDRPVQFEILSDQSVNFGFSKFPWVNYQDGNLNISIPVFSIHGNHDDPTGADALCALDILSCAGFVNHFGRSMSVEKIDISPVLLQKGSTKIALYGLGSIPDERLYRMFVNKKVTMLRPKEDENSWFNLFVIHQNRSKHGSTNFIPEQFLDDFIDLVIWGHEHECKIAPTKNEQQLFYISQPGSSVVTSLSPGEAVKKHVGLLRIKGRKMNMHKIPLHTVRQFFMEDIVLANHPDIFNPDNPKVTQAIQSFCLEKIEEMLENAERERLGNSHQPEKPLVRLRVDYSGGFEPFSVLRFSQKFVDRVANPKDIIHFFRHREQKEKTGEEINFGKLITKPSEGTTLRVEDLVKQYFQTAEKNVQLSLLTERGMGEAVQEFVDKEEKDAIEELVKYQLEKTQRFLKERHIDALEDKIDEEVRRFRETRQKNTNEEDDEVREAMTRARALRSQSEESASAFSADDLMSIDLAEQMANDSDDSISAATNKGRGRGRGRRGGRGQNSASRGGSQRGRADTGLETSTRSRNSKTAVSASRNMSIIDAFKSTRQQPSRNVTTKNYSEVIEVDESDVEEDIFPTTSKTDQRWSSTSSSKIMSQSQVSKGVDFESSEDDDDDPFMNTSSLRRNRR

Variants of: B1
Settings: with nbn_human NBN

| effect of a mutation on the interaction | Variant |
| --- | --- |
| disrupting interaction | R202G |
| decreasing interaction | C146A |

Continued, variant first:

| Variant | effect of a mutation on the interaction |
| --- | --- |
| D86L | decreasing interaction |
| R80A | disrupting interaction |
| S104C | decreasing interaction |
| P121G | disrupting interaction |
| N117L | disrupting interaction |
